Molecular target: keratin (substrate of the keratinase activity assay)

Row | Protein | Km
1 | keratinase derived from Brevibacillus parabrevis (CGMCC No. 10798), parent keratinase (protein) AQTVPYGIPQIKAPAVHAQGYKGANVKVAVLDTGIHAAHPDLNVAGGASFVPSEPNATQDFQSHGTHVAGTIAALDNTIGVLGVAPSASLYAVKVLDRYGDGQYSWIISGIEWAVANNMDVINMSLGGPSGSTALKNTVDTANNRGVVVVAAAGNSGSSGSSSTVGYPAKYDSTIAVANVNSNNVRNSSSSAGPELDVSAPGTSILSTVPSSGYTSYTGTSMASPHVAGAAALILSKNPNLTNSQVRQRLENTATPLGDSFYYGKGLINVQAASN | 2100 µM
2 | keratinase mutant T218S (protein) AQTVPYGIPQIKAPAVHAQGYKGANVKVAVLDTGIHAAHPDLNVAGGASFVPSEPNATQDFQSHGTHVAGTIAALDNTIGVLGVAPSASLYAVKVLDRYGDGQYSWIISGIEWAVANNMDVINMSLGGPSGSTALKNTVDTANNRGVVVVAAAGNSGSSGSSSTVGYPAKYDSTIAVANVNSNNVRNSSSSAGPELDVSAPGTSILSTVPSSGYTSSTGTSMASPHVAGAAALILSKNPNLTNSQVRQRLENTATPLGDSFYYGKGLINVQAASN | 1500 µM
3 | keratinase mutant N181D (protein) AQTVPYGIPQIKAPAVHAQGYKGANVKVAVLDTGIHAAHPDLNVAGGASFVPSEPNATQDFQSHGTHVAGTIAALDNTIGVLGVAPSASLYAVKVLDRYGDGQYSWIISGIEWAVANNMDVINMSLGGPSGSTALKNTVDTANNRGVVVVAAAGNSGSSGSSSTVGYPAKYDSTIAVANVDSNNVRNSSSSAGPELDVSAPGTSILSTVPSSGYTSYTGTSMASPHVAGAAALILSKNPNLTNSQVRQRLENTATPLGDSFYYGKGLINVQAASN | 1900 µM
4 | keratinase double mutant N181D-T218S (protein) AQTVPYGIPQIKAPAVHAQGYKGANVKVAVLDTGIHAAHPDLNVAGGASFVPSEPNATQDFQSHGTHVAGTIAALDNTIGVLGVAPSASLYAVKVLDRYGDGQYSWIISGIEWAVANNMDVINMSLGGPSGSTALKNTVDTANNRGVVVVAAAGNSGSSGSSSTVGYPAKYDSTIAVANVDSNNVRNSSSSAGPELDVSAPGTSILSTVPSSGYTSYSGTSMASPHVAGAAALILSKNPNLTNSQVRQRLENTATPLGDSFYYGKGLINVQAASN | 1800 µM
5 | keratinase mutant S236C (protein) AQTVPYGIPQIKAPAVHAQGYKGANVKVAVLDTGIHAAHPDLNVAGGASFVPSEPNATQDFQSHGTHVAGTIAALDNTIGVLGVAPSASLYAVKVLDRYGDGQYSWIISGIEWAVANNMDVINMSLGGPSGSTALKNTVDTANNRGVVVVAAAGNSGSSGSSSTVGYPAKYDSTIAVANVNSNNVRNSSSSAGPELDVSAPGTSILSTVPSSGYTSYTGTSMASPHVAGAAALILCKNPNLTNSQVRQRLENTATPLGDSFYYGKGLINVQAASN | 2200 µM

Source: patent US20200385745
